The test system of one data set is MCF7. Kind of data set: percentage of EdU-negative (G0-arrested) nuclei per well, 72 h; higher = more G0 arrest. To be noted: reference: sequence is the full UniProt precursor, the tested protein was the secreted form or ectodomain.
The test system of another data set is hTERT-HMEC. Described as above. To be noted: reference: sequence is the full UniProt precursor, the tested protein was the secreted form or ectodomain.
The mark [1] stands for this setting: protein concentration 0.0225 µM.
Setting [2] is: protein concentration 0.0308571 µM.
The mark [3] stands for this setting: protein concentration 0.308571 µM.
The mark [4] stands for this setting: protein concentration 0.03125 µM.
[5] abbreviates: protein concentration 0.3125 µM.
Where [6] appears, read: protein concentration 0.01034 µM.
Where [7] appears, read: protein concentration 0.1034 µM.

This note sets out measurements from the supplement of paper PMC11316812.

± gives the standard deviation of the averaged measurements.
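Also: secreted proteins added to cultured cells, EdU pulse at the end, nuclei found by Hoechst imaging, EdU status from nuclear versus surrounding ring intensity ratio, PBS as neutral control.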

Consider “MAGSPTCLTLIYILWQLTGSAASGPVKELVGSVGGAVTFPLKSKVKQVDSIVWTFNTTPLVTIQPEGGTIIVTQNRNRERVDFPDGGYSLKLSKLKKNDSGIYYVGIYSSSLQQPSTQEYVLHVYEHLSKPKVTMGLQSNKNGTCVTNLTCCMEHGEEDVIYTWKALGQAANESHNGSILPISWRWGESDMTFICVARNPVSRNFSSPILARKLCEGAADDPDSSMVLLCLLLVPLLLSLFVLGLFLWFLKRERQEEYIEEKKRVDICRETPNICPHSGENTEYDTIPHTNRTILKEDPANTVYSTVEIPKKMENPHSLLTMPDTPRLFAYENVI [Q9NQ25]”, for which the “percentage of EdU-negative” value in the data set on MCF7 (setting [1]) is 27.18 ± 0.048%; in the data set with MCF7 (protein concentration 0.225 µM), 27.7 ± 1.3%; in the data set with hTERT-HMEC (setting [1]), 5 ± 0.45%; with hTERT-HMEC (protein concentration 0.225 µM), 6.3 ± 0.74%.
For the sequence “MARLGNCSLTWAALIILLLPGSLEECGHISVSAPIVHLGDPITASCIIKQNCSHLDPEPQILWRLGAELQPGGRQQRLSDGTQESIITLPHLNHTQAFLSCCLNWGNSLQILDQVELRAGYPPAIPHNLSCLMNLTTSSLICQWEPGPETHLPTSFTLKSFKSRGNCQTQGDSILDCVPKDGQSHCCIPRKHLLLYQNMGIWVQAENALGTSMSPQLCLDPMDVVKLEPPMLRTMDPSPEAAPPQAGCLQLCWEPWQPGLHINQKCELRHKPQRGEASWALVGPLPLEALQYELCGLLPATAYTLQIRCIRWPLPGHWSDWSPSLELRTTERAPTVRLDTWWRQRQLDPRTVQLFWKPVPLEEDSGRIQGYVVSWRPSGQAGAILPLCNTTELSCTFHLPSEAQEVALVAYNSAGTSRPTPVVFSESRGPALTRLHAMARDPHSLWVGWEPPNPWPQGYVIEWGLGPPSASNSNKTWRMEQNGRATGFLLKENIRPFQLYEIIVTPLYQDTMGPSQHVYAYSQEMAPSHAPELHLKHIGKTWAQLEWVPEPPELGKSPLTHYTIFWTNAQNQSFSAILNASSRGFVLHGLEPASLYHIHLMAASQAGATNSTVLTLMTLTPEGSELHIILGLFGLLLLLTCLCGTAWLCCSPNRKNPLWPSVPDPAHSSLGSWVPTIMEEDAFQLPGLGTPPITKLTVLEEDEKKPVPWESHNSSETCGLPTLVQTYVLQGDPRAVSTQPQSQSGTSDQVLYGQLLGSPTSPGPGHYLRCDSTQPLLAGLTPSPKSYENLWFQASPLGTLVTPAPSQEDDCVFGPLLNFPLLQGIRVHGMEALGSF”, the “percentage of EdU-negative” value with MCF7 (setting [2]) came to 27.8 ± 0.38%; in the data set on MCF7 (setting [3]), 29.5 ± 3%; in the data set with hTERT-HMEC (setting [2]) it was 5.21 ± 0.22%; in the data set with hTERT-HMEC (setting [3]) it was 10.7 ± 1.1%.
Take “MIPAKDMAKVMIVMLAICFLTKSDGKSVKKRSVSEIQLMHNLGKHLNSMERVEWLRKKLQDVHNFVALGAPLAPRDAGSQRPRKKEDNVLVESHEKSLGEADKADVNVLTKAKSQ”: the “percentage of EdU-negative” value with MCF7 (setting [4]) stood at 25.8 ± 0.95%; in the data set on MCF7 (setting [5]) it was 25 ± 0.47%; in the data set with hTERT-HMEC (setting [4]), 4.88 ± 0.23%; with hTERT-HMEC (setting [5]), 6.37 ± 2%.
With “MPRYVPLLLLLLLLRCSERGGGVNFGEKDAKVPGTWRDGVRVPGEGASWDSDRASPERRYGIVGLSQSISTKHPETSPKDSRIRENDVTADGRTTEDHITADPGTTEDSVTADPGTTEDNVTVDPGTTEGSVTADPATTKDYVSADPGTTKDSVTADPGTTENFVTADPGTTKDSITADPRTTEDSVTADPGTTKHSITVDPGTTEDSVTADPGTTKHSITADPGTTEDSVTADPGTTEDETTKHGDTHLL [E2RYF7]”, the “percentage of EdU-negative” value came out at 23.6 ± 2.3% with MCF7 (setting [1]), 24.8 ± 0.67% in the data set on MCF7 (protein concentration 0.225 µM), 5.3 ± 1.4% with hTERT-HMEC (setting [1]) and 5.54 ± 0.41% with hTERT-HMEC (protein concentration 0.225 µM).
On to “MERPLCSHLCSCLAMLALLSPLSLAQYDSWPHYPEYFQQPAPEYHQPQAPANVAKIQLRLAGQKRKHSEGRVEVYYDGQWGTVCDDDFSIHAAHVVCRELGYVEAKSWTASSSYGKGEGPIWLDNLHCTGNEATLAACTSNGWGVTDCKHTEDVGVVCSDKRIPGFKFDNSLINQIENLNIQVEDIRIRAILSTYRKRTPVMEGYVEVKEGKTWKQICDKHWTAKNSRVVCGMFGFPGERTYNTKVYKMFASRRKQRYWPFSMDCTGTEAHISSCKLGPQVSLDPMKNVTCENGLPAVVSCVPGQVFSPDGPSRFRKAYKPEQPLVRLRGGAYIGEGRVEVLKNGEWGTVCDDKWDLVSASVVCRELGFGSAKEAVTGSRLGQGIGPIHLNEIQCTGNEKSIIDCKFNAESQGCNHEEDAGVRCNTPAMGLQKKLRLNGGRNPYEGRVEVLVERNGSLVWGMVCGQNWGIVEAMVVCRQLGLGFASNAFQETWYWHGDVNSNKVVMSGVKCSGTELSLAHCRHDGEDVACPQGGVQYGAGVACSETAPDLVLNAEMVQQTTYLEDRPMFMLQCAMEENCLSASAAQTDPTTGYRRLLRFSSQIHNNGQSDFRPKNGRHAWIWHDCHRHYHSMEVFTHYDLLNLNGTKVAEGHKASFCLEDTECEGDIQKNYECANFGDQGITMGCWDMYRHDIDCQWVDITDVPPGDYLFQVVINPNFEVAESDYSNNIMKCRSRYDGHRIWMYNCHIGGSFSEETEKKFEHFSGLLNNQLSPQ [Q9Y4K0]”, for which the “percentage of EdU-negative” value with MCF7 (setting [6]) is 25.4 ± 0.28%; with MCF7 (setting [7]), 27.7 ± 0.84%; in the data set on hTERT-HMEC (setting [6]) it was 4.4 ± 0.43%; in the data set with hTERT-HMEC (setting [7]), 9.13 ± 1.5%.
For the sequence “MASLRVERAGGPRLPRTRVGRPAALRLLLLLGAVLNPHEALAQPLPTTGTPGSEGGTVKNYETAVQFCWNHYKDQMDPIEKDWCDWAMISRPYSTLRDCLEHFAELFDLGFPNPLAERIIFETHQIHFANCSLVQPTFSDPPEDVLLAMIIAPICLIPFLITLVVWRSKDSEAQA”, the “percentage of EdU-negative” value worked out at 26.4 ± 3.1% in the data set on MCF7 (setting [1]), 23.7 ± 0.28% in the data set with MCF7 (protein concentration 0.225 µM), 4.96 ± 0.83% in the data set with hTERT-HMEC (setting [1]) and 5.12 ± 0.077% with hTERT-HMEC (protein concentration 0.225 µM).
As to “MSSSCSGLSRVLVAVATALVSASSPCPQAWGPPGVQYGQPGRSVKLCCPGVTAGDPVSWFRDGEPKLLQGPDSGLGHELVLAQADSTDEGTYICQTLDGALGGTVTLQLGYPPARPVVSCQAADYENFSCTWSPSQISGLPTRYLTSYRKKTVLGADSQRRSPSTGPWPCPQDPLGAARCVVHGAEFWSQYRINVTEVNPLGASTRLLDVSLQSILRPDPPQGLRVESVPGYPRRLRASWTYPASWPCQPHFLLKFRLQYRPAQHPAWSTVEPAGLEEVITDAVAGLPHAVRVSARDFLDAGTWSTWSPEAWGTPSTGTIPKEIPAWGQLHTQPEVEPQVDSPAPPRPSLQPHPRLLDHRDSVEQVAVLASLGILSFLGLVAGALALGLWLRLRRGGKDGSPKPGFLASVIPVDRRPGAPNL”, the “percentage of EdU-negative” value with MCF7 (setting [4]) came to 26.9 ± 2%; in the data set on MCF7 (setting [5]), 36.6 ± 0.72%; with hTERT-HMEC (setting [4]), 4.53 ± 0.46%; in the data set with hTERT-HMEC (setting [5]) it was 11.8 ± 0.14%.
